Patent publication US20030143656A1

What was measured:
[1] = target: 412E-p70 S6K-T2 (His-tagged, insect cells) (human) (UniProt P23443); experiment: SPR, His-PDK1 injected over 412E-p70 S6K-T2 amine-coupled to a CM5 chip, steady state
[2] = target: GST-PDK1 I119A (human), O15530; experiment: cell-based or functional assay

Sequence of 412E-p70 S6K-T2 (His-tagged, insect cells) (human) (P23443 other isoform, or with tags, fused parts or gaps): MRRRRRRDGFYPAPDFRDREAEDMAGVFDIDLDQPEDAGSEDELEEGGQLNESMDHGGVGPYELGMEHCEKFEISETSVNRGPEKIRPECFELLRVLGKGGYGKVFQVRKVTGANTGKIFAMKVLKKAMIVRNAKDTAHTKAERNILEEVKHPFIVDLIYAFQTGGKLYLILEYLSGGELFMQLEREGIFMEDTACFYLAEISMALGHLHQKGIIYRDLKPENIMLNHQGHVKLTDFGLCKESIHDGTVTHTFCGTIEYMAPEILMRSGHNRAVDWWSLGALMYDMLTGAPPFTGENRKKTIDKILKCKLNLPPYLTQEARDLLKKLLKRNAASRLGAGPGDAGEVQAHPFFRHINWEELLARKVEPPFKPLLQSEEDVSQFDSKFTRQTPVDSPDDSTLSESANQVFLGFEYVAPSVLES

Kd [1] [µM]	inhibition by 2 µM PIFtide of the activation of S6K1-T2[T412E] and SGK1[T422D] by the PDK1 mutant [2] [%]	inhibition by 35 µM PIFtide of the activation of S6K1-T2[T412E] and SGK1[T422D] by the PDK1 mutant [2] [%]	stimulation of the PDK1 mutant towards T308tide by PIF [2] [fold]	Binder
8				His-PDK1 (enzyme, human, UniProt O15530 52-556, looked up, not shown: small tags and cut ends) DGTAAEPRPGAGSLQHAQPPPQPRKKRPEDFKFGKILGEGSFSTVVLARELATSREYAIKILEKRHIIKENKVPYVTRERDVMSRLDHPFFVKLYFTFQDDEKLYFGLSYAKNGELLKYIRKIGSFDETCTRFYTAEIVSALEYLHGKGIIHRDLKPENILLNEDMHIQITDFGTAKVLSPESKQARANSFVGTAQYVSPELLTEKSACKSSDLWALGCIIYQLVAGLPPFRAGNEYLIFQKIIKLEYDFPEKFFPKARDLVEKLLVLDATKRLGCEEMEGYGPLKAHPFFESVTWENLHQQTPPKLTAYLPAMSEDDEDCYGNYDNLLSQFGCMQVSSSSSSHSLSASDTGLPQRSGSNIEQYIHDLDSNSFELDLQFSEDEKRLLLEKQAGGNPWHQFVENNLILKMGPVDKRKGLFARRRQLLLTEGPHLYYVDPVNKVLKGEIPWSQELRPEAKNFKTFFVHTPNRTYYLMDPSGNAHKWCRKIQEVWRQRYQSHPDAAVQ
	50	> 95	2	REPRILSEEEQEMFRDFDYIADWC [PIFtide]
